In the RNAGym collection of RNA variant scans (doi:10.7554/elife.80360):

B1: HDV Ribozyme (parent)
chain: GGCCGGCAUGGUCCCAGCCUCCUCGCUGGCGCCGGCUGGGCAACAUUCCGAGGGGACCGUCCCCUCGGUAAUGGCGAAUGGGACCCA

Variants of: B1
Assay: self-cleavage, relative activity (ratio to wild type); higher = more cleavage; co-transcriptional

| Variant | self-cleavage |
| --- | --- |
| G11A G35C | 0.0536 |
| G34U A78U | 0.121 |
| C4U G76C | 0.984 |
| A45U A78U | 0.155 |
| A42U A43G | 0.201 |
| G2C C24A | 0.0791 |
| A70G U79C | 0.365 |
| G1C G28C | 0 |
| G67C A87G | 0.961 |
| G1A C33A | 0.0554 |
| C18G U20A | 0.161 |
| C3G U37C | 1.08 |
| G17A C33U | 0.566 |
| A78G U79C | 0.225 |
| G25U C86G | 0.256 |
| G68A A78C | 0.0733 |
| U46C G50U | 0.779 |
| G76C U79G | 0.617 |
| C24G C61G | 0.0264 |
| C64A G68A | 0.537 |
| C22A A51C | 0.341 |
| C61G A71C | 0.787 |
| A8C C58U | 0.831 |
| G35U G39C | 0 |

| Variant | self-cleavage |
| --- | --- |
| G31U G38U | 0.0944 |
| G1C G10A | 0.166 |
| C3G U27A | 0.308 |
| U27C G31A | 0.251 |
| G1U C41U | 0.228 |
| G55C U60C | 1.07 |
| C19U G59A | 0.145 |
| C49G A87U | 0.913 |
| G34A G80A | 0.0241 |
| G67A U79G | 0.807 |
| U46C C58U | 0.7 |
| U9A C18U | 0.991 |
| C48A A71U | 0.867 |
| G17A G55A | 0.705 |
| C7G G74C | 0.0475 |
| G25A U69G | 0.233 |
| A43U C63G | 0.394 |
| A8G G10C | 0.665 |
| G54U G55U | 0.921 |
| G55A C62A | 1.01 |
| G52U A70U | 0.831 |
| C66G G74C | 0.199 |
| G10A G40U | 0.566 |
| C7A U9A | 0.431 |

| Variant | self-cleavage |
| --- | --- |
| U65C A71G | 0.935 |
| G17C C44U | 0.142 |
| G29C A56U | 0.0755 |
| C75U G82A | 0.202 |
| G28U G59C | 0.136 |
| C30G A83U | 0.16 |
| A71C C86G | 0.63 |
| A42G C64A | 0.302 |
| C22G U23A | 0.0941 |
| C64U A77C | 0.318 |
| G82C C86A | 0.527 |
| U37C G50C | 1.07 |
| G39C A70U | 0.0308 |
| U37C G76C | 1.19 |
| A56G A77C | 0.199 |
| G2U G29C | 0.0252 |
| C19A G39A | 0.114 |
| A56U A83C | 0.499 |
| G59U U65C | 1.15 |
| U12C C30G | 0.0573 |
| C33A C58G | 0.332 |
| C3G G29A | 0.106 |
| G50A G55U | 1.11 |
| C7A C15G | 0.123 |

| Variant | self-cleavage |
| --- | --- |
| C15A U27A | 0.594 |
| C13G C41U | 0 |
| A45C A77U | 0.142 |
| G1U U20C | 0.401 |
| C44U U69C | 0.814 |
| G68A G76U | 1.14 |
| C58U G67U | 1.12 |
| A71C C84G | 0.415 |
| G50C G81C | 0.125 |
| C4A G31C | 0.0739 |
| C19A U23C | 0.0519 |
| A70C G82U | 0.166 |
| G1C C49A | 0.237 |
| G67C C84G | 0.499 |
| C21A C57A | 0.102 |
| G29C U69G | 0.0504 |
| C21A A78U | 0.0573 |
| C36G A78U | 0.0346 |
| U9C G73A | 0.675 |
| C7G C66U | 0.231 |
| C57U C61U | 0.843 |
| C13A A56G | 0.101 |
| C24G C63G | 0.217 |
| U9G A43G | 0.475 |

| Variant | self-cleavage |
| --- | --- |
| C36G A43U | 0.0755 |
| G38C U69C | 0.18 |
| G39A A51C | 0.389 |
| A56U G76C | 1.14 |
| U12G G53C | 0.831 |
| U20G U23A | 0 |
| A16U C62A | 0.897 |
| C64G A78C | 0.269 |
| C30G C75A | 0.0583 |
| C49G G76U | 1.17 |
| G25U G55A | 0.201 |
| G50U C63U | 0.909 |
| G17C U23A | 0.344 |
| G29C U65G | 0.123 |
| C3A G59A | 0.739 |
| C4A G50C | 0.456 |
| G52U A77U | 0.743 |
| C21U A45U | 0.283 |
| G31A C63G | 0.365 |
| U20G A71G | 0.196 |
| C30U G52C | 0.709 |
| G1A U9G | 0.302 |
| U72G C86A | 1.16 |
| C3G G40U | 0.442 |

| Variant | self-cleavage |
| --- | --- |
| G1A C21G | 0.0489 |
| U20C C86A | 0.158 |
| U23G G52U | 0.585 |
| G1C G17U | 0.0573 |
| C19U G52U | 0.265 |
| G1U U47A | 0.295 |
| C19U U20C | 0.145 |
| G11U C14U | 0.406 |
| U27A G54C | 0.707 |
| C19G G80U | 0.0902 |
| U20A G40U | 0.0627 |
| C44U C75G | 0.106 |
| G28A A87G | 0.0492 |
| G10C G31C | 0.237 |
| G1C A87C | 0.156 |
| G50U A71U | 1.02 |
| G73U A83U | 0.0462 |
| C33U G39A | 0.182 |
| A8U G76U | 0.707 |
| G35C C63G | 0.0449 |
| G50C U69G | 1.05 |
| A8G G76U | 0.831 |
| U9A C64A | 1.04 |
| G29C C58G | 0.156 |

| Variant | self-cleavage |
| --- | --- |
| U46A U69G | 0.793 |
| A56U C66A | 1.03 |
| G35C C85A | 0.213 |
| U12G C41G | 0.554 |
| G6C A70C | 0.133 |
| G17A G52U | 0.728 |
| U60G G76U | 0.969 |
| C18U C19G | 0.0297 |
| G5C C86U | 0.172 |
| G31U C36U | 0.0702 |
| G6U C75U | 0.113 |
| C15A G59U | 0.623 |
| C22A C24U | 0.0361 |
| G6A G53C | 0.928 |
| A42G C84U | 0.525 |
| U27C A77G | 0.798 |
| G34C U37C | 0.156 |
| G39A C63G | 0.352 |
| C4U G39U | 0.58 |
| C18A C85A | 0.224 |
| C41A C63U | 1.04 |
| G34A G81A | 0.128 |
| C22U A43G | 0.116 |
